Laboratory results published in patent US20160222086.

Key:
[1] = test system: T1, thrombin-activated rFVIII (rFVIIIa), made from the recombinant B-domain truncated Factor VIII N8
T1 sequence: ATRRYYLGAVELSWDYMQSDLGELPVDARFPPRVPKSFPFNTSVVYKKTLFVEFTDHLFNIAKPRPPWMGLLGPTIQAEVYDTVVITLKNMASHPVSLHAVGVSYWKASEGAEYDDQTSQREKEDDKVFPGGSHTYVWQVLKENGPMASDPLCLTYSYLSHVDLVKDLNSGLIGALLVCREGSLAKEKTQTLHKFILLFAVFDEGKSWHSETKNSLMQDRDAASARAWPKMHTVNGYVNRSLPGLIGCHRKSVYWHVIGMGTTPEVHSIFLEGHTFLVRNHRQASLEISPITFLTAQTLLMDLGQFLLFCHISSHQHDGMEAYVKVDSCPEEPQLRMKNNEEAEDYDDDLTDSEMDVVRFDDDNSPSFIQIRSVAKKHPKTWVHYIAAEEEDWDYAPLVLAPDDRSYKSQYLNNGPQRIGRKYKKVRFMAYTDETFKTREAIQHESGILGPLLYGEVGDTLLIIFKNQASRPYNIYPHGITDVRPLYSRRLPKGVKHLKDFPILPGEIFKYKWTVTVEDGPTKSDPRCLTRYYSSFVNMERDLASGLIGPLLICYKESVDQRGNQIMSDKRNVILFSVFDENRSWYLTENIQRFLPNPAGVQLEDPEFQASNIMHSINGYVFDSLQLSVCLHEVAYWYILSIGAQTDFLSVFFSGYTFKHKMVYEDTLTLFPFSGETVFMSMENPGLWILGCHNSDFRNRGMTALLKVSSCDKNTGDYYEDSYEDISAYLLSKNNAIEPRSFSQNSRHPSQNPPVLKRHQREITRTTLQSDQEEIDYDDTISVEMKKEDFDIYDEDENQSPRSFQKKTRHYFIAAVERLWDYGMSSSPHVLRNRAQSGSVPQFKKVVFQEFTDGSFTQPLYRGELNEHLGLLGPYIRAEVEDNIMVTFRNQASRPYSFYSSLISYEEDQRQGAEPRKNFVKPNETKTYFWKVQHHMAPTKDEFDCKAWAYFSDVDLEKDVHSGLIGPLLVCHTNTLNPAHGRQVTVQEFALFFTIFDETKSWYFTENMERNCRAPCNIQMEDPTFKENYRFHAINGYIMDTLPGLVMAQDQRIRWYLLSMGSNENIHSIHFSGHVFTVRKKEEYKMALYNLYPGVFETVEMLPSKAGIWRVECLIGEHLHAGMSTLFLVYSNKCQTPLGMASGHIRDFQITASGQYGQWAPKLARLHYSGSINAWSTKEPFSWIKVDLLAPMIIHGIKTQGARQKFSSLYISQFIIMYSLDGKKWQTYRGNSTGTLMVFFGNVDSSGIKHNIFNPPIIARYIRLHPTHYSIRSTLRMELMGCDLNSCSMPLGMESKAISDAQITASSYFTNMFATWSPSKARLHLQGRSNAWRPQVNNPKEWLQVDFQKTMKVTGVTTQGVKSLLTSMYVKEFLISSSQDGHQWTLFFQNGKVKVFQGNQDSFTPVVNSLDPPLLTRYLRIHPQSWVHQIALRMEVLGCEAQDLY

[2] = test system: T2, thrombin-activated 40 K-PEG-[O]-rFVIII
T2 sequence: T1 sequence

[3] = test system: T3, thrombin-activated 80 K-PEG-[O]-rFVIII
T3 sequence: T1 sequence

FIXa
K1/2FIXa [1]: 0.88 nM
K1/2FIXa [2]: 0.42 nM
apparent Kd of rFVIIIa-FIXa interaction (K1/2FIXa) [2]: O-linked glycoPEGylation did not affect the apparent Kd of rFVIIIa-FIXa interaction (K1/2FIXa)
K1/2FIXa [3]: 1.11 nM
apparent Kd of rFVIIIa-FIXa interaction (K1/2FIXa) [3]: O-linked glycoPEGylation did not affect the apparent Kd of rFVIIIa-FIXa interaction (K1/2FIXa)
